Test results: patent US20240199755A1, “ANTAGONISTS AND AGONISTS OF THE TRANSFERRIN RECEPTOR-2 FOR USE IN THE TREATMENT OF DISEASES OF THE BONE” (Kymab Limited, priority 2018, published 2024)

Target: T1, Tfr2-ECD (Mus musculus, UniProt Q9JKX3)
T1 construct: full-length extracellular domain (ECD, aa 103-798) of murine Tfr2; His (N); MBP (N); c3 (protease site between MBP and ECD) (N); made in house; host or cells: Sf9 insect cells (baculovirus, pOCC211-Tfr2-ECD)
T1 sequence (Q9JKX3 103-798): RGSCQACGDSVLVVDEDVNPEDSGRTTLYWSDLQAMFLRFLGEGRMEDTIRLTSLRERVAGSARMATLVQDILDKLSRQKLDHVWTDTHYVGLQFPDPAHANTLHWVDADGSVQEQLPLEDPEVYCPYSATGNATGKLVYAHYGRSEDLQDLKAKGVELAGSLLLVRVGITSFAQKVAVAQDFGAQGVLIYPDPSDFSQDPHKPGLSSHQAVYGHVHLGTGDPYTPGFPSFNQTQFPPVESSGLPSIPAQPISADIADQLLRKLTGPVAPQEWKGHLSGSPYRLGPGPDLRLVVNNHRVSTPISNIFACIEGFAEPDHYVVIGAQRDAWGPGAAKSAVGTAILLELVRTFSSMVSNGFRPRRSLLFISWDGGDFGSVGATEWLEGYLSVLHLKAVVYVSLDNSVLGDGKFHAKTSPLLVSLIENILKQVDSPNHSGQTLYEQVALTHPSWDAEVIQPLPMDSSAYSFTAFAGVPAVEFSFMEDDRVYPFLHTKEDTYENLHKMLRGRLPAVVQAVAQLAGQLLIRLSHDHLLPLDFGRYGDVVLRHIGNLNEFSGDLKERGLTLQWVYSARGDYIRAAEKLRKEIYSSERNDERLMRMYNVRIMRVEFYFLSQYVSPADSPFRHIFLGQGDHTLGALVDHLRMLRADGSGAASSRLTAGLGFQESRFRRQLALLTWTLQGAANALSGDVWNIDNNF
Experiment: SPR binding of holo-Tf and BMP receptors to Tfr2-ECD immobilized on the sensor chip
Set-up: species or system murine
Conditions: 200 nM BMP receptors; binding level normalized to molecular weight
Protocol: For this purpose, Tfr2-ECD is immobilized on a Series S Sensor Chip C1 (GE Healthcare), by means of coupling the amino groups at 25° C. The carboxyl groups on the chip surface are activated for 7 minutes using a mixture of 196 mM 1-ethyl-3-(3-dimethylaminopropyl) carbodiimide-hydrochloride and 50 mM n-hydroxysuccinimide at a flow rate of 10 μl/min. Subsequently, 5 μg/ml Tfr2-ECD, diluted with sodium acetate buffer (pH 4.5), is injected at a flow rate of 5 μl/min up to a relative occupancy of 200 RU. Non-reacted groups are inactivated by injecting 1 M thanolamine-HCl (pH 8.5) for 7 minutes at a flow rate of 10 μl/min. In order to prepare a reference surface, the same procedure is carried out but without Tfr2-ECD being injected.
The binding assays are carried out at 37° C. at a flow rate of 30 μl/min. Each analyte is diluted by a running buffer (HBS-P, pH 7.4 together with 50 nM FeCl3). […] The values of the binding level are read out, relative to the baseline, 10 s before the end of the injection and are corrected with respect to the molar mass. […] The binding parameters are determined using the Biacore™ T100 evaluation software 2.03. […]
For binding analysis, an injection of analyte for 240 s or 300 s over a Tfr2-ECD surface was followed by 1000 s dissociation. The values of the binding levels were recorded from referenced signals 10 s before the end of injection relative to baseline response. […]

Binding response of BMPRs to Tfr2-ECD compared with BMPs: weaker than BMPs
B1: BMPR-II: type II BMP receptor (R&D Systems) (protein, UniProt Q13873 27-1038, looked up)
Bone morphogenetic protein …: SQNQERLCAFKDPYQQDLGIGESRISHENGTILCSKGSTCYGLWEKSKGDINLVKQGCWSHIGDPQECHYEECVVTTTPPSIQNGTYRFCCCSTDLCNVNFTENFPPPDTTPLSPPHSFNRDETIIIALASVSVLAVLIVALCFGYRMLTGDRKQGLHSMNMMEAAASEPSLDLDNLKLLELIGRGRYGAVYKGSLDERPVAVKVFSFANRQNFINEKNIYRVPLMEHDNIARFIVGDERVTADGRMEYLLVMEYYPNGSLCKYLSLHTSDWVSSCRLAHSVTRGLAYLHTELPRGDHYKPAISHRDLNSRNVLVKNDGTCVISDFGLSMRLTGNRLVRPGEEDNAAISEVGTIRYMAPEVLEGAVNLRDCESALKQVDMYALGLIYWEIFMRCTDLFPGESVPEYQMAFQTEVGNHPTFEDMQVLVSREKQRPKFPEAWKENSLAVRSLKETIEDCWDQDAEARLTAQCAEERMAELMMIWERNKSVSPTVNPMSTAMQNERNLSHNRRVPKIGPYPDYSSSSYIEDSIHHTDSIVKNISSEHSMSSTPLTIGEKNRNSINYERQQAQARIPSPETSVTSLSTNTTTTNTTGLTPSTGMTTISEMPYPDETNLHTTNVAQSIGPTPVCLQLTEEDLETNKLDPKEVDKNLKESSDENLMEHSLKQFSGPDPLSSTSSSLLYPLIKLAVEATGQQDFTQTANGQACLIPDVLPTQIYPLPKQQNLPKRPTSLPLNTKNSTKEPRLKFGSKHKSNLKQVETGVAKMNTINAAEPHVVTVTMNGVAGRNHSVNSHAATTQYANGTVLSGQTTNIVTHRAQEMLQNQFIGEDTRLNINSSPDEHEPLLRREQQAGHDEGVLDRLVDRRERPLEGGRTNSNNNNSNPCSEQDVLAQGVPSTAADPGPSKPRRAQRPNSLDLSATNVLDGSSIQIGESTQDGKSGSGEKIKKRVKTPYSLKRWRPSTWVISTESLDCEVNNNGSNRAVHSKSSTAVYLAEGGTATTMVSKDIGMNCL
